Data from article doi:10.1101/2025.02.24.639257.
Read-outs that look alike come from different tables or passages of the source.

Tests used:
Assay in all cases: TIRF microscopy binding assay
[1] = biological target: porcine double-stabilized microtubules (dsMTs) (porcine) (UniProt P02550)
[2] = biological target: porcine double-stabilized microtubules (dsMTs) (porcine) (UniProt P02550); remark: listed apart in the source
[3] = biological target: AspN-treated double-stabilized microtubules (β-tubulin C-tail removed) (porcine) (UniProt P02550)

Molecule: human TTLL11 I594W mutant (from UniProt Q8NHH1 1-710) (enzyme)
- percent reduction of the fluorescence signal (against full-length TTLL11) [1]: 80%
- percent reduction of the fluorescence signal (against full-length TTLL11) [2]: 95%

Molecule: human TTLL11 R601E mutant (from UniProt Q8NHH1 1-710) (enzyme)
- percent reduction of the fluorescence signal (against full-length TTLL11) [1]: 60%

B1: human TTLL11 (tubulin tyrosine ligase-like 11), full length (enzyme)
chain: MRRGSSESELAARWEAEAVAAAKAAAKAEAEATAETVAEQVRVDAGAAGEPECKAGEEQPKVLAPAPAQPSAAEEGNTQVLQRPPPTLPPSKPKPVQGLCPHGKPRDKGRSCKRSSGHGSGENGSQRPVTVDSSKARTSLDALKISIRQLKWKEFPFGRRLPCDIYWHGVSFHDNDIFSGQVNKFPGMTEMVRKITLSRAVRTMQNLFPEEYNFYPRSWILPDEFQLFVAQVQMVKDDDPSWKPTFIVKPDGGCQGDGIYLIKDPSDIRLAGTLQSRPAVVQEYICKPLLIDKLKFDIRLYVLLKSLDPLEIYIAKDGLSRFCTEPYQEPTPKNLHRIFMHLTNYSLNIHSGNFIHSDSASTGSKRTFSSILCRLSSKGVDIKKVWSDIISVVIKTVIALTPELKVFYQSDIPTGRPGPTCFQILGFDILLMKNLKPILLEVNANPSMRIEHEHELSPGVFENVPSLVDEEVKVAVIRDTLRLMDPLKKKRENQSQQLEKPFAGKEDALDGELTSAPDCNANPEAHLPSICLKQVFPKYAKQFNYLRLVDRMANLFIRFLGIKGTMKLGPTGFRTFIRSCKLSSSSLSMAAVDILYIDITRRWNSMTLDQRDSGMCLQAFVEAFFFLAQRKFKMLPLHEQVASLIDLCEYHLSLLDEKRLVCGRGVPSGGRPPHRGPPQEPSPSAQPAGDNPPPRTSCANKLSHPRHTLS
modifications: Janelia 549-HALO probe on the HALO tag (in the TIRF assay)
- percent lower fluorescence signal than on intact MTs [3]: 50%
